Molecular target: T1, V/A-ATPase D subunit, Thermus thermophilus (T. thermophilus, UniProt O87880 1-223)
T1 construct: V/A-ATPase D subunit (central rotor), Thermus thermophilus; also called part of the DF rotor; DF axis
T1 sequence: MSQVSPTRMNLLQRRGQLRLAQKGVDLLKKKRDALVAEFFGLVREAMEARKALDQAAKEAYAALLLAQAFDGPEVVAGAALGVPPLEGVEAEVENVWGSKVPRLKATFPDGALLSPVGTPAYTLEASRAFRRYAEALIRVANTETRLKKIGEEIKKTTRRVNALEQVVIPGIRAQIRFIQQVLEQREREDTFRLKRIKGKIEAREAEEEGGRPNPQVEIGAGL
Assay: cryo-EM structure; nucleotide-free V/A-ATPase in nanodiscs, 4 uM enzyme mixed with an equal volume of x2 RB buffer (50 mM Tris-Cl pH 8.0, 100 mM KCl, 2 mM MgCl2, 5 mM PEP, 100 ug/ml PK, 20 mM ammonium sulfate) with ATP-Mg (low ATP, 60 s; or saturating ATP, 5 s or 30 s) at 25 °C; single-particle analysis, membrane domain subtracted, focused refinement of V1EG
Settings: both partners purified

B1: V/A-ATPase F subunit, Thermus thermophilus (natural protein, T. thermophilus)
chain: MAVIADPETAQGFRLAGLEGYGASSAEEAQSLLETLVERGGYALVAVDEALLPDPERAVERLMRGRDLPVLLPIAGLKEAFQGHDVEGYMRELVRKTIGFDIKL
notes: V/A-ATPase F subunit (central rotor), Thermus thermophilus; also called part of the DF rotor; DF axis
**Q.** Does B1 bind?
**A.** Result: binds

Reference: article PMC9971907, “Cryo-EM analysis of V/A-ATPase intermediates reveals the transition of the ground-state structure to steady-state structures by sequential ATP binding” (The Journal of Biological Chemistry, 2023)
